Experimental findings from WO2018083240A1 (dated 2018) are described below.

In test [1] the target is Screening Peptide DDR1_HUMAN(788-808)[pY796] (human). The test can be described thus: SPR (Biacore T200), antibody captured by goat anti-rabbit Fc, peptide as analyte, 25 C; value of Table 3 as repeated in the description.
The target in test [2] is T1, Screening Peptide DDR1_HUMAN(788-808) (human, N-terminal Glu(Bi-PEG) (residue 1 of the letters given); C-terminal amide (-NH2)).
T1 construct: The leading E stands for the printed Glu(Bi-PEG), which is not part of DDR1 788-808; also called non-phosphorylated screening peptide
T1 peptide: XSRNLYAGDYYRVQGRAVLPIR
Put plainly: ELISA, biotinylated peptide on streptavidin plate, 30 ul transfection supernatant.

The target in test [3] is Screening Peptide DDR1_HUMAN(788-808)[pY796] (human). Described as above.

B1: rabbit monoclonal anti-pY796-DDR1 antibody 22D9 (antibody, V domains shown)
VH: QSVEESGGRLVTPGTPLTLTCKVSGFSLSNYHMIWVRQAPGKGLEWIGIISRRGTTWYASWVKGRFTISKSSTTVDLKITSPTTEDTATYFCARGGVDSSYRDLWGPGTLVTVSS
VL: QVLTQTPSSVSAAVGGTVTINCQSNQRVANVNCLAWYQQKPGQPPKLLIYDASSLASGVPSRFSGSGSGTQFTLSISGVQCGDAATYYCQGTYATFGASAWYGDAFGGGTEVVVE
notes: Full-length rabbit IgG (150 kDa), expressed in HEK293 cells; Same variable domains as 31A5; also called clone 22D9
With B1, the Kd in test [1] amounted to 0.051 nM. Also, the “OD 405” value in test [2] was 0.286 OD 405; in test [3], 3.12 OD 405.

B2: rabbit monoclonal anti-pY796-DDR1 antibody 31A5 (antibody, V domains shown)
VH: QSVEESGGRLVTPGTPLTLTCKVSGFSLSNYHMIWVRQAPGKGLEWIGIISRRGTTWYASWVKGRFTISKSSTTVDLKITSPTTEDTATYFCARGGVDSSYRDLWGPGTLVTVSS
VL: QVLTQTPSSVSAAVGGTVTINCQSNQRVANVNCLAWYQQKPGQPPKLLIYDASSLASGVPSRFSGSGSGTQFTLSISGVQCGDAATYYCQGTYATFGASAWYGDAFGGGTEVVVE
notes: Full-length rabbit IgG (150 kDa), expressed in HEK293 cells; Same variable domains as 22D9; also called clone 31A5
Take B2: the “OD 405” value is 0.253 OD 405 in test [2] and 2.98 OD 405 in test [3].

B3: rabbit monoclonal anti-pY796-DDR1 antibody 20G11 (antibody, V domains shown)
VH: QSVEESGGRLVTPGTPLTLTCKVSGFSLSNYHMIWVRQAPGKGLEWIGIISRRGTTWYASWVKGRFTISKGSTTVDLKITSPTTEDTATYFCARGGVDSSYRDLWGPGTLVTVSS
VL: QVLTQTPSSVSAAVGGTVTINCQSSQRVANVNCLAWYQQKPGQPPKLLIYDASSLASGVPSRFSGSGSGTQFTLSISGVQCGDAATYYCQGTYATFGASAWYGDAFGGGTEVVVE
notes: Full-length rabbit IgG (150 kDa), recombinantly expressed in HEK293 cells; also called clone 20G11
In turn, B3 showed a Kd in test [1] of 0.038 nM. Also, the “OD 405” value amounted to 0.313 OD 405 in test [2] and 3.06 OD 405 in test [3].
